Results published in publication PMC9924070 (2021).
Substitutions are numbered along the chain they refer to.

B1: humVHH (VHH)
VHH: EVQLVESGGGLVQPGGSLRLSCAASGRTFSEYAMGWFRQAPGKEREFVATISWSGGSTYYTDSVKGRFTISRDNAKNTVYLQMNSLRPEDTAVYYCAAAGLGTVVSEWDYDYDYWGQGTLVTVSS
B2: humVHH_S56A/LALAPG-Fc (Fc fusion)
chain: B1 VHH with S57A
B3: humVHH_S56A (VHH)
VHH: B1 VHH with S57A

Experiments:
Experiment in all cases: BLI
[1] = target: T1, monomeric human Fc-fused SARS-CoV-2_RBD-SD1 (SARS-CoV-2)
[2] = target: T1, monomeric human Fc-fused …; remark: listed apart in the source
[3] = target: T2, Mouse IgG1 Fc-fused SARS-CoV-2 RBD (SARS-CoV-2, UniProt P0DTC2)
[4] = target: T2, Mouse IgG1 Fc-fused SARS-CoV-2 RBD; remark: listed apart in the source

Binder	Kd [1] [nM]	koff [2] [s⁻¹]	koff [3] [s⁻¹]	Kd [4] [nM]
B1	63	0.088	–	–
B2	–	–	8.16e-05	0.0477
B3	8.3	0.023	–	–
